Read-outs that look alike come from different tables or passages of the source. Where only a bound is given, the exact number is not on record here.

The target in one series is T1, bovine insulin (Bos taurus, UniProt P01317).
T1 construct: 51 amino acid residues, distributed over two polypeptide chains (A and B) that are interconnected by disulphide bridges; purchased Sigma-Aldrich I5500
The series is described as follows: Effect of short-chain alcohols on insulin fibrillation kinetics (ThT) at pH 4.0. To be noted: ammonium acetate buffer pH 4.0, ThT, 60 °C; for retardation of insulin fibril formation (half-time) at the most effective alcohol:buffer mixing ratio: quiescent, triplicate, alcohol range 0-50% v/v; for alcohol concentration of maximal retarding effect: volume fraction. As for the experimental part: (§1) Aggregation kinetics was monitored by ThT fluorescence in a Fluostar Omega or Fluostar Optima fluorescence plate reader (BMG Labtech, Ortenberg, Germany) at 60 °C without shaking. Samples were deposited in 100 μl triplicate in black half-area 96-well microtiter plates with transparent bottoms (Corning #3881), and the plates were sealed with plastic film (Bio-Rad Laboratories, Hercules, CA, U.S.) to avoid sample evaporation. ThT fluorescence emission was detected using bottom optics, a 440 ± 10 nm band pass excitation filter, and a 485 ± 12 nm band pass emission filter. The ThT concentration was 7.2 μM in all experiments.
To mimic conditions relevant to industrial purification of insulin, we investigated the effect of three short-chain alcohols (methanol, ethanol and isopropanol) on insulin aggregation in ammonium acetate buffer. We monitored ThT kinetics as function of increasing concentration (range: 0–50% v/v) of each alcohol (Fig. 5a–c). […] Methanol is apparently a weaker modulator (it retards fibril formation by ~ 2 times); higher concentrations (40%) are also needed to reach maximal effect.

Series [1] can be described thus: AFM imaging of the end point of the fibrillation reaction. The series is classed as physicochemical, bovine. To be noted: aggregated in ammonium acetate pH 4.0 in presence of 30% (vol/vol) EtOH; on mica. As for the experimental part: For atomic force microscopy, fibrillar insulin was deposited on freshly cleaved mica and left to settle for 5 min, after which the mica plates were rinsed with milli-Q water and dried under a gentle stream of nitrogen. AFM images were recorded on an NTEGRA Prima setup (NT-MDT, Moscow, Russian Federation) equipped with a gold-coated single crystal silicon cantilever (NSG-01, spring constant ~ 5.1 N/m, resonance frequency of ~ 150 kHz). The images were processed in the Gwyddion software package (Nečas and Klapetek [2012]) using planar subtraction, polynomial background subtraction and correction for linear aberrations. For fluorescence microscopy, 150 µl of insulin solution was placed on positively charged glass (Thermo Scientific, Waltham, MA, USA) and sealed with a 18 × 18 mm coverslip. A Zeiss AxioObserver.Z1 inverted fluorescence microscope (Carl Zeiss AG, Oberkochen, Germany) with a 100 × oil immersion objective (NA = 1.46) was used in combination with a Photometrics Evolve EMCCD camera (Photometrics, Tuscon, AZ, USA), 100 ms exposure time, to obtain the images of the samples.
This is probably due to ThT’s fluorescence being sensitive both to ThT binding affinity and to the quantum yield of each bound dye molecule (Lindberg et al.[2015], [2017]). […]

The nature of series [2]: Fibril formation yield (centrifugation to sediment amyloid fibrils). The class given is physicochemical, bovine. As for the experimental part: The fibril yields for the reactions shown in Fig. 1 were estimated by centrifugation experiments to sediment amyloid fibrils formed at a starting concentration of 58 μM insulin. […] We also used centrifugation to sediment insoluble insulin in 1 mg/ml solutions to investigate the solubility across a range of buffers with different pH values (Fig. 1d).

For series [3] the following is noted: centrifuged 13,400 rpm 15 min, absorption 280 nm. As for the experimental part: The solubility of insulin as function of pH was estimated by preparing insulin solutions with varying pH at a concentration of 1 mg/ml. The solutions were centrifuged at 13,400 rpm in an Eppendorf Minispin tabletop centrifuge (Eppendorf, Hamburg, Germany) for 15 min to pellet non-dissolved insulin. The solubility was estimated by measuring the insulin concentration in the supernatant by absorption (see above). The same strategy was used to determine fibril formation yields at different pH values, using pre-formed fibrils as starting material.

Series [4] can be described thus: Thioflavin-T kinetic assay of insulin amyloid formation. To be noted: 64 μM insulin, 60 °C, quiescent; for half-time of amyloid formation: ThT 7.2 μM. The class given is physicochemical, bovine. As for the experimental part:
as §1
We set up thioflavin-T kinetic assays to monitor the aggregation of bovine insulin in microtitre plates at 60 °C and under quiescent conditions, initially at pH 2.2 to establish a reproducible method, then extending to pH 7.0 to reflect native conditions. The resulting kinetic curves (presented as normalized ThT fluorescence) are presented in Fig. 1a, b; each condition was analysed in triplicate and all curves are shown. The aggregation rate of bovine insulin increases with increase in monomer concentration at pH 2.2 (Fig. 1a), which is intuitively expected and also consistent with many previous studies (see for example Brange and Langkjoer [1993]; Nielsen et al. [2001]). […] The scaling component, i.e. the slope of the fitted straight line to the half-time data, for insulin aggregation kinetics at pH 2.2 is − 1.02, which is consistent with a nucleation-dependent aggregation mechanism (Meisl et al. [2016]). […] This is, from an amyloid formation point of view, an anomalous behaviour that can be explained by that insulin, in addition to existing as a monomer, populates higher-order oligomeric states that are resilient to amyloid formation; or interfere with fibril elongation (Ziaunys et al. [2018]). These higher-order states can be significant, or even predominant, at pH 7.0 despite that no stabilizing zinc was added (Ziaunys et al. [2018]; Waugh et al. [1953]; Goldman and Carpenter, [1974]).

For series [5] the following is noted: ref Wintersteiner and Abramson [1933]; cited from earlier work.

T1 sequence (P01317 25-54 limits assumed): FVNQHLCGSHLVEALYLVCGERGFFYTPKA
T1 sequence (P01317 85-105 limits assumed): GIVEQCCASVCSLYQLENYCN

Regarding `CCO` [Ethanol, ethanol], at bovine insulin, the “retardation of insulin fibril formation (half-time) at the most effective alcohol:buffer mixing ratio” value was “three to four” and the “alcohol concentration of maximal retarding effect” value (“alcohol concentration” below) was 30–35%.
As for `CO` [Methanol, methanol], at bovine insulin, the “retardation of insulin fibril formation (half-time) at the most effective alcohol:buffer mixing ratio” value is on record as ~ 2 times and the “alcohol concentration” value is reported as 40%.
Regarding `CC(C)O` [isopropanol], at bovine insulin, the “retardation of insulin fibril formation (half-time) at the most effective alcohol:buffer mixing ratio” value is “three to four” and the “alcohol concentration” value is on record as 30–35%.
As for Bovine insulin, in series [1], the “size of oligomeric particles at end point of fibrillation (AFM)” value is given as 2–3 nm. Moreover, the fibril yield in series [2] (pH 2.2, starting concentration 58 μM insulin, absorption of supernatant) is on record as 91 ± 8%; in series [2] (pH 4.0, absorption of supernatant), > 99.5%; in series [2] (pH 7.0, starting concentration 58 μM insulin, absorption of supernatant, n = 3), 90 ± 5%. In addition, the insulin solubility result is reported as “high” in series [3] (across most of the assayed pH range except pH 5.0-6.0, 1 mg/ml (172 μM), pre-dissolved in 100 mM HCl); “solubility remains high” in series [3] (pH 4.0, 1 mg/ml); “low solubility” in series [3] (pH 5.0-6.0, close to pI, 1 mg/ml). Moreover, the “half-time of amyloid formation” value in series [4] (ammonium acetate buffer (200 mM) pH 4.0, printed 'ammonium phosphate', triplicate) stood at 7.7 ± 0.8 h; in series [4] (citrate-phosphate buffer pH 4.0, triplicate), 6.5 ± 0.1 h. The “slowing of amyloid formation kinetics as measured by half-time of fibril formation” value in series [4] (pH 4.0 compared with pH 3.0 or pH 7.0, citrate-phosphate buffer, ThT, triplicate) is given as ~ 50%. In series [4] (pH 5.0-6.0, citrate-phosphate buffer, ThT, no reliable half-times within assayed time range), the amyloid formation result is recorded as “strongly inhibited”. Also, the “isoelectric point (pI)” value in series [5] is reported as 5.3.

The values above are taken from article PMC7069927, “Amyloid formation of bovine insulin is retarded in moderately acidic pH and by addition of short-chain alcohols” (European Biophysics Journal, 2020).
